These are literature values, as cited in PMC6008173.

The target of the series is PCDH15 EC1-2 (Mus musculus) (UniProt Q99PJ1).

For CDH23 EC1-2 (from UniProt Q99PF4), the Kd is 3 µM.

The term Kd denotes the concentration at which binding is half-saturated.
